Data reported in patent publication US20090170718, “High-stringency screening of target-binding partners using a microfludic device” (published 2009).

Tests used:
[1] = biological target: T1, Botulinum neurotoxin type A light chain (BoNT/A-rLc) (UniProt P0DPI1 P0DPI1:2-448); assay: SPR; 20 mM HEPES, 150 mM NaCl, 2 mM KCl, 2 mM MgCl2, 2 mM CaCl2, pH 7.4; […]; details: tags: List Biological Laboratories; coupled via amines to Dynabeads M-270 carboxylic acid for selection and bead assays
[2] = biological target: T1, Botulinum neurotoxin type A light chain …; assay: SPR; details: tags: List Biological Laboratories; coupled via amines to Dynabeads M-270 carboxylic acid for selection and bead assays

Row | Binder | Kd [1] | Kd [2]
1 | aptamer c (ssDNA) DNA: AGCAGCACAGAGGTCAGATGCTTGAGTGTCATGGACGTTCCGGTCTTGGGCGGGATATTTGTTTGTTTTCTGCCTATGTTCCTATGCGTGCTACCGTGAA | 34 nM | 
2 | aptamer d (ssDNA) DNA: AGCAGCACAGAGGTCAGATGTCAGATGGCCGGACTCAGGCACTAGACCACTATGCTTCCGTTGCCATTCATCGGCACGTCCTATGCGTGCTACCGTGAA |  | 53 nM
3 | aptamer a (ssDNA) DNA: AGCAGCACAGAGGTCAGATGTCTTTCATACCGAGGTTGATCCAGTAGTATTCTTATCTAATTTGTTTTGTTCGTATGTGCCCTATGCGTGCTACCGTGAA |  | 65 nM
4 | aptamer b (ssDNA) DNA: AGCAGCACAGAGGTCAGATGTGGTCTTGTCTTTCATTCCAGGTGGCGAGTCAAATCGATACTGATCCGCTGACACAGGATCCTATGCGTGCTACCGTGAA |  | 86 nM
